# The nanobody polyreactivity screen of Harvey et al. (2022)
# Test: yeast display, Sf9 membrane polyspecificity reagent, FACS + sequencing; frameworks hold sequencing errors
# How it was run: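 Synthetic nanobody libraries on Saccharomyces cerevisiae BJ5465 were galactose-induced for 36–48 hours, stained 1 hour at 4 °C with 10% biotinylated, detergent-solubilized Sf9 membrane reagent and enriched on streptavidin microbeads. FACS then separated cells into low and high (top ~1%) gates by anti-HA (expression) and streptavidin (reagent binding) fluorescence. Genes were colony-PCR amplified, MiSeq 2 × 250 sequenced and CDR-length filtered. A clone's polyreactivity label is that of its gate of origin.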
row,Sequence,polyreactivity (PSR sort gate)
1,QVQLVESGGGLVQAGGSLRLSCAASGSISGLYAKGWYRQAPGKERELVAAITFRDGTTSYADSVKGRFTISRDNAKNTVYLQMNSLKPEDTAVYYCAAVDRDSNSSVPTLVHWGQGTQVTVSS,low polyreactivity
2,QVQLVESGGGLVQAGGSLRLSCAASGSISGYYAMGWYRQAPGKERELVASIRYTGARTYYADSVKGRFTISRDNAKNTVYLQMNSLKPEDTAVYYCAADFKRDRVWGGDYWGQGTQVTVSS,low polyreactivity
3,QVQLVESGGGLVQAGGSLRLSCAASGSISGYYAMGWYRQAPGKERELVASIRYTGARTYYADSVKGRFTSSRDNAKNTVYLQMNRLKPEDTAVFYCAADKVQYEGDAYGPPQYDYWGQGTQVTVSS,low polyreactivity
4,QVQLVESGGGLVQAGGSLRLSCAASGSISGYYVMGWYRQAQGKERELVAAITWRGGSTYYADSVKGRFTISRDNAKNTVYLQMNSLKPEDTAVYYCNKVPGRGSTFEYWGQGTQVTVSS,high polyreactivity
5,QVQLVESGGGLVQAGGSLRLSCAASGSISIGYTMGWYRQAPGKERELVATISWSGGNTYYADSVKGRFTISRDNAKNTVYLQMNSLKPEDTAVYYCAGRWYYYPLLYDYWGQGTQVTVSS,low polyreactivity
6,QVQLVESGGGLVQAGGSLRLSCAASGSISIGYTMGWYRQSPGKERDLVATISWSGGNTYYADSVKGRFTIARDNAKNTVYLQINSLKPEDSAVYYFAARWYYYPLLYDYWGQGTQVTVSS,low polyreactivity
7,QVQLVESGGGLVQAGGSLRLSCAASGSISIRNAMGWYRQAPGKERELVAAISRGGSTYYADSVKGRFTISRDNAKNKVYLQMNSLKPEDTAVYYCNVLHLRRTAIMDYWGQGTQVTVSS,high polyreactivity
8,QVQLVESGGGLVQAGGSLRLSCAASGSISIVYTMGWYRQAPGKERELVATISWSGGNTYYADSVKGRFTISRDYAKNTVYLQMNSLKPEDTAVYYCAARWYYYPLLYDYWGQGTQVTVSS,low polyreactivity
9,QVQLVESGGGLVQAGGSLRLSCAASGSISRYYAMGWYRQAPGKERELVAAISSNGGSTYYADSVKGRFTISRDNAKNTVYLQMNSLKPEDTAVYYCNAYYVGYIRYWTNKLVDYWGQGTQVTVSS,high polyreactivity
10,QVQLVESGGGLVQAGGSLRLSCAASGSISSFYAMGWYRQAPGKERELVAGITSGGSTNYADSVNGRFTISRDNAKNTVYLKLNSLNPEDTAVFYCAAERTPSYRAYDYWGKGTQVTVSS,low polyreactivity
11,QVQLVESGGGLVQAGGSLRLSCAASGSISSKNAMGWYRQAPGKEREFVAVISGTGGSTYYADSVKGRLTISRDNAKNTVYLQMNSLKPEDTAVYYCAAAASSIVSYGYTWTYGYWGQGTQVTVSS,low polyreactivity
12,QVQLVESGGGLVQAGGSLRLSCAASGSISSQYAMGWYRQAPGKERELVAAISYSGGSTYYADSVKGRFTISRDNAKNTVYLQMNSLKPEDTAVYYCAAETSYYTRWFDGHYYYWGQGTQVTVSS,high polyreactivity
13,QVQLVESGGGLVQAGGSLRLSCAASGSISSVNVMGWYRQAPGKERELVAAISSGTSTHYADSVKGRFTISRDNAKNTVYLQMNSLKPVDTAVYYCAAYFYRQYLYFLYEYDYWGQGTQVTVSS,low polyreactivity
14,QVQLVESGGGLVQAGGSLRLSCAASGSISTVNVMGWYRQAPGKERELVAAISSGTSTHYADSVKVRFTISRDNAKNTVYLQMNSLKPEDTAVYYCAAYFYRQYLYFLYEYDYWGQGTQVTVSS,low polyreactivity
15,QVQLVESGGGLVQAGGSLRLSCAASGSISWHYAMGWYRQAPGKERELVASISTDGGTTYYADSVKGRFTISRDNAKNTVYLQMNSLKPEDTAVYYCAAEWYWVYYVPYEYWGQGTQVTVSS,low polyreactivity
16,QVQLVESGGGLVQAGGSLRLSCAASGSISYANALGWYRQAPGKERELVAAISGSGGSTYYADSVKGRFTISRDNAKNTVYLQMNSLKPEDTAVYYCAARGFPPGDEWHPYDYWGQGTQVTVSS,low polyreactivity
17,QVQLVESGGGLVQAGGSLRLSCAASGSISYDYAMGWDRQAPGKERELVASITSRGGSTYADSVKGRFTISRDKAKNTVYLQMNSLKPEDTAVYYCAADAIPNLIFISLPFGLDYWGQGTQVTVSS,low polyreactivity
18,QVQLVESGGGLVQAGGSLRLSCAASGSISYQNAMGWYRQAPGKERELVAAITSSGGNTYYADSVKGRFTISRDNAKNTVYLQMNSLKPEDTAVYYCNAVLYYDSYLYYYWGQGTQVTVSS,low polyreactivity
19,QVQLVESGGGLVQAGGSLRLSCAASGSISYRYDKGWYRQAPGKEMELVATIRSGGSTNYADSVKGRFTISRDTAKNTVYLQMNSLKPEDTAVYYGAARLYARKKLHFSADSDYWGQGTQVTVSS,low polyreactivity
20,QVQLVESGGGLVQAGGSLRLSCAASGSIVAGYAMGWYRQAPGKEREMVAAISDSGGNTYYADSVKGRFTISRDNAKNTVYLQMNSLKPEDTAVYYCAADLGYGPLRELEYWGQGTQVTVSS,low polyreactivity
21,QVQLVESGGGLVQAGGSLRLSCAASGSIVGGYDMGWYRQAPGKERELVAVINSNGGSTYYADSVKGRFTISRDNANNTVYLQMNSLKPEDTAVYYCAADYESYVYIGYGYWGQGTQVTVSS,low polyreactivity
22,QVQLVESGGGLVQAGGSLRLSCAASGSIVGRYAMGWYSQAPGQERELVAAISTGDSTYYADSVKGRFTISRDNAKNTVYLQMNSLKPEDTAVYYCNRRGRRVYDYWGQGTQVTVSS,high polyreactivity

row,Sequence,polyreactivity (PSR sort gate)
1,QVQLVESGGGLVQAGGSLRLSCAASGSIVGYYFMGWYRQAPGKERELVAAITRSGSTYYADSVKGRFTISRDNEKNTVYLQMNSLKPEDTAVYYCAADGSYYWYTHTTYDYWGQGTQVTVSS,low polyreactivity
2,QVQLVESGGGLVQAGGSLRLSCAASGSIVNIYAMGWYRQAPGKERQLVARISCSGVSTYYADSVKGRLTISRDHAKNTVYLQMNSLKREDTAVYDCAARYGRVYYYGWYWLYYWGQGTQVTVSS,high polyreactivity
3,QVQLVESGGGLVQAGGSLRLSCAASGSIVNYYAMGWYRPAPGKERELVAAITSGGSTYYADSVKGRFTISRDNAKNTVYLQMNSLKAEDTAVYYCNKAFPYIYDYWGQGTQVTVSS,low polyreactivity
4,QVQLVESGGGLVQAGGSLRLSCAASGSIVNYYAMGWYRQAPGKERELVAAITWSGGRTYSADSVKGRFTSSRDNAKNTVYLQMNSLKPEDTAVYYCATAPVRIRDILFSPRMDYWGLGTQVTVSS,low polyreactivity
5,QVQLVESGGGLVQAGGSLRLSCAASGSIVVWNDMGWYRQAPGTEREFVAAITSRDGSTYYADSVKGRFTISRDNAKNTVYLQMNSLKPEDTAVYYCAARLRVTVFYSRTRYYWGQGTQVTVSS,low polyreactivity
6,QVQLVESGGGLVQAGGSLRLSCAASGSIVYTNALGWSRQAPAKERELVAAISGSGGNTYYADSVKVRFTISRDNAKNTVYLQMNSLNPEDTAVYYCAADRNAYYYDSYYYWGLGTQVTVSS,high polyreactivity
7,QVQLVESGGGLVQAGGSLRLSCAASGSIVYYYGMGWYRPAPGKETELVAAISTGGSTYYADSVKGRFTISRDKAKKTVYLQMNSLKPEDTADFYCSADYYTQWQTRYDYWGQGTQVTVSS,low polyreactivity
8,QVQLVESGGGLVQAGGSLRLSCAASGSIYDPYAMGWYRQAPGKERELVAAINGGSGSTFYADSVKGRFTISRDNAKNTVYFQMNSLKPEDTAVYYCAAKIWRYSPSYYPEPRGDYWGQGTQVNVSS,low polyreactivity
9,QVQLVESGGGLVQAGGSLRLSCAASGSIYGSYVMGWYRQAPGKERELVAAINWSGGRTYYADSVKGRFTISRDNAKYTVFLQMNSLKPEDTAVYYCAARATNVYSKMDYWGQGTQVSVSS,high polyreactivity
10,QVQLVESGGGLVQAGGSLRLSCAASGSIYGYTMGWYRPAPGKERELVAAINRRADRTYYADSVKGRYTISRDNAKNTVYLQMNSLKPEDTAVYYCNKGGWYTLGYWGQGTQVTVSS,high polyreactivity
11,QVQLVESGGGLVQAGGSLRLSCAASGSIYHPYALGWYRQAPGKERELVAAISKSGGNTYYADSVKGRFTISRDNAKNTVYLQMNCLKPEDTAVYYCAALDYWGQGTQVTVSS,low polyreactivity
12,QVQLVESGGGLVQAGGSLRLSCAASGSIYITYAMGWYRQAPGKERELVAAIRDSGDRTYYADSVKGRFTISRDNAKNTVYLQMNSLKPEDTAVYYCNARWQEPLKYDYWGQGTQVTVSS,low polyreactivity
13,QVQLVESGGGLVQAGGSLRLSCAASGSIYNINAMGWYRQAPGKERELVATITSGGTTSYADSVKGRFTISRDNAKNTVYLQMNSLKPEDTAVYYCNAEIYPIVKAGRQHPRRYDYWGQGTQVTVSS,low polyreactivity
14,QVQLVESGGGLVQAGGSLRLSCAASGSIYPYYAKGWNRPAPRKERELFAAIDSGGSTNYADSLKGRFSITRDNAKNRVYLQLNSLIPEDTAVFYCADDVYWFAYVWSKYVFWGQGTHVTVSS,low polyreactivity
15,QVQLVESGGGLVQAGGSLRLSCAASGSIYQNAMGWYRQAPGKERELVAAITSSGGRTYADSVKGRFTISRDNAKNTVYLQMNSLKPEDTAVYYCAKDSTADELTGFDYWGQGTQVTVSS,low polyreactivity
16,QVQLVESGGGLVQAGGSLRLSCAASGSIYRWYAMGWYRQAPGKERELVASISSGTRTNYADSVKGRFTISRDNAKNTVYLQMNSLKPEDTAVYYCAAPYVKRWWGYGYWGQGTQVTVSS,high polyreactivity
17,QVQLVESGGGLVQAGGSLRLSCAASGSIYSNAMGWYRQAPGKERELVAAISRTGGSTYYADSVKGLFTISRDNAKITVYLQMNSLKPEDTAVYYCAVSAWTRSHALYYWGQGTQVTVSS,high polyreactivity
18,QVQLVESGGGLVQAGGSLRLSCAASGSIYSNAMGWYRQAPGKERELVAAISWRDGRTYYADSVKGRFTISRDNAKNTVYLQMNSLKPEDTAVYYCNADSRPLSTYYYWGQGTQVTVSS,low polyreactivity
19,QVQLVESGGGLVQAGGSLRLSCAASGSIYTHYAMGWYRQAPRKQRELVAAISRRGGSTYYADSVKGRFTISRDNAKNTVYLPMHSLKPEDTAVYYCAKSPDTAKEYDYWGQGTQVTVSS,high polyreactivity
20,QVQLVESGGGLVQAGGSLRLSCAASGSIYTQNAMGWYRQAPGKERELVADISRGSTYYADSVKGRFTISRDNAKNTVYLQMNSLKPEDTAVYYCAADDIAHPSFVSTVDVGMDYWGQGTQVTVSS,low polyreactivity
21,QVQLVESGGGLVQAGGSLRLSCAASGSIYVGNDMGWYSQAPGKESEFVATMSWAGGSTDYADSVKGRFTISRDNAKNTVYLQMNSQKPEDTAVYYCAKTPYSRYRYGGYTYRTFDYWGQGTQVTVSS,low polyreactivity
